Source: paper PMC4490372, “Architecture of TFIIIC and its role in RNA polymerase III pre-initiation complex assembly” (Nature Communications, 2015)

B1: τ131 (123–566), TPR array, wild type [S. cerevisiae] / τ138 (641–693), τ131-Interaction Region (τIR) [S. cerevisiae] (parent complex)
chain 1: VLDPEVAQLLSQANEAFVRNDLQVAERLFNEVIKKDARNFAAYETLGDIYQLQGRLNDCCNSWFLAAHLNASDWEFWKIVAILSADLDHVRQAIYCFSRVISLNPMEWESIYRRSMLYKKTGQLARALDGFQRLYMYNPYDANILRELAILYVDYDRIEDSIELYMKVFNANVERREAILAALENALDSSDEESAAEGEDADEKEPLEQDEDRQMFPDINWKKIDAKYKCIPFDWSSLNILAELFLKLAVSEVDGIKTIKKCARWIQRRESQTFWDHVPDDSEFDNRRFKNSTFDSLLAAEKEKSYNIPIDIRVRLGLLRLNTDNLVEALNHFQCLYDETFSDVADLYFEAATALTRAEKYKEAIDFFTPLLSLEEWRTTDVFKPLARCYKEIESYETAKEFYELAIKSEPDDLDIRVSLAEVYYRLNDPETFKHMLVDVVEMR
chain 2: SKKATFTDVIHDTEIYFFDQTEKNRFHRGKKSVERIRKFQNRQKNAKIKASDD
B2: τ131 (123–566), TPR array, wild type [S. cerevisiae] / τ138 (546–693), eWH-τIR [S. cerevisiae] (parent complex)
chain 1: B1 chain 1
chain 2: SARSLRSLQRQRAILKVMNTIGGVAYLREQFYESVSKYMGSTTTLDKKTVRGDVDLMVESEKLGARTEPVSGRKIIFLPTVGEDAIQRYILKEKDSKKATFTDVIHDTEIYFFDQTEKNRFHRGKKSVERIRKFQNRQKNAKIKASDD

Variants of: B1
Assay: ITC; parent: 80 nM

Question: With chain 1 E376K as the variant, how does the Kd read?
Answer: Its Kd is 833 nM.

Question: How did the Kd turn out when chain 1 E375K was run?
Answer: The Kd was 89 nM.

Question: With chain 1 E350K as the variant, how does the Kd read?
Answer: The Kd was 833 nM.

Variants of: B2
Assay: ITC; parent: 100 nM

Question: Which Kd does the source give for chain 1 E376K here?
Answer: The Kd was 971 nM.

Question: For chain 1 E350K, which Kd is on record?
Answer: The Kd was 415 nM.
